B1: c-myc-tagged PYL13 (other)
chain: MESSKQKRCRSSVVETIEAPLPLVWSILRSFDKPQAYQRFVKSCTMRSGGGGGKGGEGKGSVRDVTLVSGFPADFSTERLEELDDESHVMVVSIIGGNHRLVNYKSKTKVVASPEDMAKKTVVVESYVVDVPEGTSEEDTIFFVDNIIRYNLTSLAKLTKKMMK
notes: Transiently expressed in Col-0 protoplasts for co-IP; also called c-myc-PYL13; MYC-PYL13; not shown: c-myc tag
B2: PYL13 fused to the GAL4-activating domain (AD) (other, not shown: large carriers)
chain: B1 chain
notes: also called AD-PYL13
B3: PYL12 fused to the GAL4-DNA binding domain (BD) (receptor, not shown: large carriers; small tags and cut ends)
chain: MKTSQEQHVCGSTVVQTINAPLPLVWSILRRFDNPKTFKHFVKTCKLRSGDGGEGSVREVTVVSDLPASFSLERLDELDDESHVMVISIIGGDHRLVNYQSKTTVFVAAEEEKTVVVESYVVDVPEGNTEEETTLFADTIVGCNLRSLAKLSEKMMELT
notes: Yeast two-hybrid construct
B4: PYL11 fused to the GAL4-DNA binding domain (BD) (receptor, not shown: small tags and cut ends)
chain: METSQKYHTCGSTLVQTIDAPLSLVWSILRRFDNPQAYKQFVKTCNLSSGDGGEGSVREVTVVSGLPAEFSRERLDELDDESHVMMISIIGGDHRLVNYRSKTMAFVAADTEEKTVVVESYVVDVPEGNSEEETTSFADTIVGFNLKSLAKLSERVAHLKL
notes: Yeast two-hybrid construct
B5: PYL11-nLUC (receptor)
chain: B4 chain
notes: LUC complementation assay in protoplasts; also called PYLs-nLUC; not shown: N-terminal domain of firefly luciferase

Tests used:
[1] = biological target: ABI1 without tag (purified recombinant) (Arabidopsis) (UniProt P49597); experiment: cell-based or functional assay
Chain of ABI1 without tag (purified recombinant) (Arabidopsis) (P49597 whole entry): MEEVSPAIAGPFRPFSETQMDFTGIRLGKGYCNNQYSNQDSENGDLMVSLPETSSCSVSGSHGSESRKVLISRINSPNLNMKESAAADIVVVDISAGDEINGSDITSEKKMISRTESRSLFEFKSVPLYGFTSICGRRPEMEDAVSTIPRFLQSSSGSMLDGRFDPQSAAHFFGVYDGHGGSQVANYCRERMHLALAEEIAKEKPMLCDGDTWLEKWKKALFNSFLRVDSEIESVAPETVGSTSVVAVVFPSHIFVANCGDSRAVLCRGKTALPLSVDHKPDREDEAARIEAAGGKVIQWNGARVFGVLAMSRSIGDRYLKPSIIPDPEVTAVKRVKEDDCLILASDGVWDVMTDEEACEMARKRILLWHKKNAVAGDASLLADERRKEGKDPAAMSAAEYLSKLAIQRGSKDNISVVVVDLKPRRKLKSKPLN

PP2CA-HA = biological target: T1, PP2CA-HA (Arabidopsis, UniProt P49598 1-399); experiment: co-IP from protoplasts with anti-HA agarose, western blot; with or without 10 µM ABA
T1 construct: also called hemagglutinin (HA)-tagged PP2CA; not shown: HA tag
T1 sequence (looked up): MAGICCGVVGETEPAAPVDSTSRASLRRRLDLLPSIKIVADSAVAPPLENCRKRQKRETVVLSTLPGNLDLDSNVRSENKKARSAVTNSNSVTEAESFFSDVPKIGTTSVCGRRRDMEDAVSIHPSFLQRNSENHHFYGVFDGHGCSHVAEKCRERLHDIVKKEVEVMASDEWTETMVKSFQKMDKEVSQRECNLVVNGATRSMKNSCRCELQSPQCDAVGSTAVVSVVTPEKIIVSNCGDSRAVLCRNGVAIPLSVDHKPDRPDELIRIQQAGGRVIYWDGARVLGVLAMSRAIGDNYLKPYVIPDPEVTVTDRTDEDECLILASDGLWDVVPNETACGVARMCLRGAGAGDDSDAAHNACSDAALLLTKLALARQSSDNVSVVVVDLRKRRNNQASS
From the text: Coimmunoprecipitation (co-IP) assays using ABI1-HA and PP2CA-HA as baits captured c-myc-PYL13 in an ABA-independent manner (FIG. 3C). The binding of PP2CA with PYL13 again appeared much stronger than that of ABI1 with PYL13. […] Total soluble proteins (input) were extracted from Arabidopsis protoplasts that transiently expressed the indicated constructs. PP2C-interacting proteins were immunoprecipitated with anti-HA mouse antibodies and detected with anti-HA and anti-cMYC rabbit antibodies.
PP2CA-HA, ABI1-HA, and MYC-PYL13 plasmids (20 μg each) were transiently expressed in wild-type (Col-0) protoplasts. After transfection, protoplasts were incubated in WI buffer under light at room temperature for 16.5 h. Protoplasts were treated with 10 μM ABA for 1.5 h before they were harvested, frozen in liquid N2, and stored at −80° C. The frozen protoplasts were resuspended in 1 ml of immunoprecipitation (IP) buffer containing 50 mM Tris-HCl, pH 7.4, 150 mM NaCl, 1 mM EDTA, 0.1% (v/v) Triton X-100, and 1× protease inhibitor cocktail (SIGMA) with or without 10 μM ABA and then centrifuged at 21000 g for 30 min at 4° C. The supernatant was used as input and was incubated for 4 h at 4° C. with 30 μl of monoclonal anti-HA-agarose antibody produced in mouse (SIGMA, A2095). […]

[2] = biological target: T2, PYR1 fused to the GAL4-DNA binding domain (BD) (Arabidopsis thaliana, UniProt O49686 1-191); experiment: yeast two-hybrid, growth on media lacking His and His/Ade, with and without ABA
T2 construct: Yeast two-hybrid construct
T2 sequence: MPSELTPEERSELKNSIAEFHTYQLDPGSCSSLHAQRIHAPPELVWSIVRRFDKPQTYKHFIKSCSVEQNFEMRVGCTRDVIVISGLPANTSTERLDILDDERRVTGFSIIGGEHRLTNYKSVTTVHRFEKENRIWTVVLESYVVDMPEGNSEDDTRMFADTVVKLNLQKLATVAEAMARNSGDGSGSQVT
Procedure: (§1) To confirm the interaction between PYL13 and PYL2/PYL9 and to determine whether PYL13 may bind with other PYLs, the interaction of PYL13 with PYLs was examined in yeast two-hybrid assays, as shown in FIG. 5. In this experiment, PYL13 interacted with PYR1, PYL1-4, PYL6, and PYL11-12 in an ABA-independent manner (FIG. 5A). PYL13 fused to the GAL4-activating domain (AD) was used as prey, and PYLs fused to the GAL4-DNA binding domain (BD) were used as baits. Interaction was determined by growth assay on media lacking His and His/Ade in the presence and absence of ABA. Dilutions (10⁻¹, 10⁻², and 10⁻³) of saturated cultures were spotted onto the plates, which were photographed after five days. […] Without wishing to be bound by theory, the lack of interaction between […] and PYL9 may be caused by the cellular differences between yeast and Arabidopsis or because of indirect interactions between the two proteins in Arabidopsis.

[3] = biological target: T3, PYL3 fused to the GAL4-DNA binding domain (BD) (Arabidopsis thaliana, UniProt Q9SSM7 1-209); experiment: as above
T3 construct: Yeast two-hybrid construct
T3 sequence: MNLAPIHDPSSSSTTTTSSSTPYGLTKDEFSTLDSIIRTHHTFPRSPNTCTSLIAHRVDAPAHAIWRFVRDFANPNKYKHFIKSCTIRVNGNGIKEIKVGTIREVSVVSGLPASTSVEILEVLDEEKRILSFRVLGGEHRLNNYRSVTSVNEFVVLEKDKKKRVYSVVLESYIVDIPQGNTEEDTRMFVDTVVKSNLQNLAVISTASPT
Procedure: as §1

[4] = biological target: T4, PYL4 fused to the GAL4-DNA binding domain (BD) (Arabidopsis thaliana, UniProt O80920 1-207); experiment: as above
T4 construct: Yeast two-hybrid construct
T4 sequence: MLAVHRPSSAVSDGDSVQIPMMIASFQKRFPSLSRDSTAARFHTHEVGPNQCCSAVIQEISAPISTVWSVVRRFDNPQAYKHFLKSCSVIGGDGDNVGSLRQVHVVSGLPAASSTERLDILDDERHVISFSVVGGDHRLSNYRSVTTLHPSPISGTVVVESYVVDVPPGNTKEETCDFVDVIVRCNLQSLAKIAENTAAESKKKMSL
Procedure: as §1

[5] = biological target: T5, PYL6 fused to the GAL4-DNA binding domain (BD) (Arabidopsis thaliana, UniProt Q8S8E3 1-215); experiment: as above
T5 construct: Yeast two-hybrid construct
T5 sequence: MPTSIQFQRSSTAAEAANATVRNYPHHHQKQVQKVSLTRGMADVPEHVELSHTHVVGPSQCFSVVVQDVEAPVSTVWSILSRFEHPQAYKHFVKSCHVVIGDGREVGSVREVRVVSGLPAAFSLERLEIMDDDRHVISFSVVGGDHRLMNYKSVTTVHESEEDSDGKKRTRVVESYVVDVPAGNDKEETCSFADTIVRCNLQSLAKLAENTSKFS
Procedure: as §1

[6] = biological target: B2; experiment: as above
Procedure: as §1

PYL13-cLUC = biological target: T6, PYL13-cLUC (Arabidopsis thaliana, UniProt Q9SN51 1-164); experiment: firefly luciferase complementation in protoplasts (stronger group)
T6 construct: LUC complementation assay in protoplasts; also called PYL13 fused to the C-terminal domain of LUC; not shown: C-terminal domain of firefly luciferase
T6 sequence: B1 chain
Procedure: To further characterize the interactions between PYL13 and PYLs in vivo, their interactions in protoplasts were examined by the firefly luciferase (LUC) complementation assay. PYL13 was fused to the C-terminal domain of LUC (PYL13-cLUC), and PYLs were fused to the N-terminal domain of LUC (PYLs-nLUC), and co-expressed in protoplasts. After transfection, protoplasts were incubated overnight under light at room temperature, and the LUC activities in living protoplasts were measured. Error bars indicate s.e.m. (n=6). […] PYL13 binds more strongly to PYR1, PYL1-5, PYL7, and PYL10-11 than to PYL6, PYL8-9, or PYL13 (FIG. 5B).

“PYL1 (purified recombinant protein, phosphatase assay) (from UniProt Q8VZS8 1-221) (receptor)” was tested, and the ABI1 phosphatase activity (pNPP, A405, % of ABI1 without ABA and PYLs), 10 µM ABA, 0.3 µM each [1] was 67%.

Work on “PYL13-PYL2 protein complex (from UniProt Q9SN51 1-164; O80992 1-190)” yielded an ABI1 phosphatase activity (pNPP, A405, % of ABI1 without ABA and PYLs), 10 µM ABA [1] of 78%.

“PYL2 (purified recombinant protein, phosphatase assay) (from UniProt O80992 1-190) (receptor)” was tested, and the ABI1 phosphatase activity (pNPP, A405, % of ABI1 without ABA and PYLs), 10 µM ABA, 0.3 µM each [1] was 50%.

For “PYL13-PYL1 protein complex (from UniProt Q9SN51 1-164; Q8VZS8 1-221)”, the ABI1 phosphatase activity (pNPP, A405, % of ABI1 without ABA and PYLs), 10 µM ABA [1] was 88%.

B1: binds (PP2CA-HA).

B2: binds [2]; binds [3]; binds [4]. B2: binds [5].

B3: binds [6].

B4: binds [6].

B5: binds (PYL13-cLUC).
